Source: article PMC2757928
One block for each substance: values may come before it.

Key:
[1] = molecular target: IRF5 (222-467) S427D (human); experiment: ITC
[2] = molecular target: IRF5 (222-467) S457D (human); experiment: ITC
[3] = molecular target: IRF5 (222-467) S436D (human); experiment: ITC
[4] = molecular target: IRF5 (222-467) S425D (human); experiment: ITC
[5] = molecular target: IRF5 (222-467) S430D (human); experiment: ITC
[6] = molecular target: IRF5 (222-467) S421D (human); experiment: ITC
[7] = molecular target: IRF5 (residues 222-467) (human); experiment: ITC
[8] = molecular target: IRF5 (222-467) S430D (human); experiment: AUC

Kd [1]: 960 nM | dH [1]: -12.9 kcal/mol | stoichiometry N [1]: 0.98 | Kd [2]: 2410 nM | dH [2]: -10.3 kcal/mol | stoichiometry N [2]: 1.08 | Kd [3]: 670 nM | dH [3]: -6.8 kcal/mol | stoichiometry N [3]: 1.07 | Kd [4]: 710 nM | dH [4]: -13.3 kcal/mol | stoichiometry N [4]: 1.04 | Kd [5]: 560 nM | dH [5]: -15.2 kcal/mol | stoichiometry N [5]: 1.02 | Kd [6]: 2280 nM | dH [6]: -6.4 kcal/mol | stoichiometry N [6]: 1.03 | Kd [7]: 1640 nM | dH [7]: -14.4 kcal/mol | stoichiometry N [7]: 1.05
Substance: CBP (residues 2067-2112) (from UniProt Q92793 2067-2112) (domain or fragment)

stoichiometry N [8]: 2
Substance: IRF5 (222-467) S430D (domain or fragment)
